# Experimental data: CN117412992A (NOVIMMUNE SA, dated 2024)
# Key:
# [1] = target: T1, recombinant human PD-L1 soluble protein, biotinylated (ACROBiosystems) (human, UniProt Q9NZQ7 19-238, biotinylated); test: BLI (Table 7) and ELISA (Fig. 1A) on recombinant PD-L1
# T1 construct: Bought soluble protein; also called 重组人PD-L1; 人PD-L1
# [2] = target: T2, human CD47 on cells (Raji, Nalm-6, HT-1080 tumour cells; human red blood cells) (human, UniProt Q08722 19-323); test: flow cytometry on human red blood cells (CD47+, PD-L1-)
# T2 construct: whole, on cells
# [3] = target: T3, human PD-L1 on cells (hPD-L1-transfected CHO cells; IFNg-induced HT-1080 tumour cells) (human, UniProt Q9NZQ7 19-290); test: flow cytometry on IFNg-preactivated PD-L1+ CD47+ HT-1080 cells, co-engagement of both targets
# T3 construct: whole, on cells
# [4] = target: T3, human PD-L1 on cells …; test: cell-based competition: inhibition of human PD-1-moFc binding to IFNg-induced PD-L1+ CD47+ HT-1080 cells, CellInsight CX5
binding result [1],binding result [2],binding result [3],IC50 [4] [pM],Binder
binds,binds,binds,–,"K2xS23 CD47xPD-L1 bispecific antibody (bispecific antibody, human IgG1, kappa, lambda, kappa-lambda body with a common heavy chain; also called K2xS23 bsAb) heavy: not shown light 1: not shown light 2: QSALTQPASVSGSPGQSITISCTGTSSDVAKIPLVSWYQQHPGKAPKLMIYFASLRPSGVSNRFSGSKSGNTASLTISGLQAEDEADYYCSSWDNAGDGHVFGGGTKLTVLGQPKAAPSVTLFPPSSEELQANKATLVCLISDFYPGAVTVAWKADSSPVKAGVETTTPSKQSNNKYAASSYLSLTPEQWKSHRSYSCQVTHEGSTVEKTVAPTECS"
–,–,–,2.52,"S79 anti-PD-L1 mAb (antibody, human IgG1, lambda, V domains shown, also called S79_Sc3_1G7_VLCL2 aPDL1 IGLV2-23; S79抗PD-L1 mAb) VH: not shown VL: QSALTQPASVSGSPGQSITISCTGTSSDVFRPPLVSWYQQHPGKAPKLMIYFASLRPSGVSNRFSGSKSGNTASLTISGLQAEDEADYYCSSWDHTGDGHVFGGGTKLTVLG"
–,–,–,0.84,"S100 anti-PD-L1 mAb (antibody, human IgG1, lambda, V domains shown, bivalent monospecific anti-PD-L1 IgG; also called S100抗PD-L1 mAb) VH: not shown VL: QSVLTQPPSASGTPGQRVTISCSGSSSNIENKPVNWYQQLPGTAPKLLIYHDTTRPSGVPDRFSGSKSGTSASLAISGLQSEDEADYYCAAWDFATWPATEVFGGGTKLTVLG"
